The record followed here is patent publication US20230218721A1, “INCRETIN ANALOGUE, PREPARATION METHOD THEREFOR, AND USE THEREOF” (ZHEJIANG DOER BIOLOGICS CO., LTD., priority 2020, published 2023).

In the test the target is human glucagon-like peptide-1 receptor (GLP-1R) (human (printed as 'Humanized')) (UniProt P43220). The experiment in a line: cell-based or functional assay.
human glucagon-like peptide-1 receptor (GLP-1R) (human (printed as 'Humanized')), sequence (P43220 24-463): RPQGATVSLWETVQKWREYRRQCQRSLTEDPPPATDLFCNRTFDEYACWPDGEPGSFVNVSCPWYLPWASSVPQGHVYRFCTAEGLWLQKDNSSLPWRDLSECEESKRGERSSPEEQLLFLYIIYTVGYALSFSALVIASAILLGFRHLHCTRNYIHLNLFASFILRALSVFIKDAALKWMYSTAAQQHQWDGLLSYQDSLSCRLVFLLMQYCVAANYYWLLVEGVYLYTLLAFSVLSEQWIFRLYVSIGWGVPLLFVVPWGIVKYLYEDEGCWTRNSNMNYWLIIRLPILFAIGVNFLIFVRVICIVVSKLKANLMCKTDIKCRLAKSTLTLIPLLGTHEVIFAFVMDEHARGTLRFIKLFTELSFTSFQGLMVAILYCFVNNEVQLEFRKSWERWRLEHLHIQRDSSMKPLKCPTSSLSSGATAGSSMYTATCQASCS

Substance “Dulaglutide (Trade name: Trulicity) (Fc fusion)” registered a GLP-1R agonist activity (EC50, nM) of 0.01 nM.
